The supplement of paper PMC10567573

B1: S100A14 (parent)
chain: KIANLGSCNDSKLEFRSFWELIGE

Variants of: B1
Assay: protein stability index of a GFP-peptide fusion (GPS, HEK-293T) (PSI 1-6); higher = more stable
Conditions: c terminus: a fixed tail appended
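Note: lentivirally expressed fusions sorted by FACS into six bins by GFP to DsRed ratio, PSI derived from sequencing read proportions per bin multiplied by bin number.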

Protein stability index of substitutions, site by site:
I2: F 1.55; N 1.6; D 1.61; A 1.77; R 2.13; G 2; T 2; E 1.77; V 1.88; C 1.22; S 2.9; L 1.8; M 1.99; Q 1.32; W 1.88; H 2.31; Y 1.57; K 1.54; P 2.12
D10: M 2.85; I 1.72; G 2.84; K 1.98; H 2.31; A 1.66; E 2.21; F 1.92; C 1.95; L 2.55
G6: L 3.46; W 2.21; C 2.45; E 2.06; Q 1.95; S 2.1; Y 1.85; P 1.67; H 1.5; V 2.51; D 1.61; K 3.01; N 2.94; A 2.11; M 2.51; R 1.92; I 1.75; T 1.63
S7: A 1.51; V 2.58; N 2.32; H 2.25; K 1.44; L 1.79; W 1.89; E 1.87; D 1.96; M 1.62; C 2.09; Y 1.83; F 2.13; P 2.5; R 2.03; T 1.71; I 1.89; Q 1.68; G 1.62
C8: T 1.76; H 1.22; V 2.08; R 2.07; N 1.68; G 2.24; Q 1.68; P 1.79; D 2.63; E 1.97; F 1.56; A 1.77; L 1.49; M 1.51; S 1.99; I 3.2; W 1.12; K 1.55
N9: M 1.97; G 2.22; C 1.75; R 1.47; V 2.01; P 1.98; S 1.08; Q 1.77; A 2.06; K 2.23; D 1.59; Y 1.91; T 1.56; F 1.86; E 2.19; H 1.8; W 1.83; I 1.69
L5: F 2.03; S 2.29; T 1.62; Q 2.17; Y 1.53; N 2.44; I 1.41; P 2.08; C 2.27; K 2.89; M 1.85; E 2.74; G 1.72; V 2.09; R 2.25; A 1.89; H 1.88; D 2.67
N4: Y 2.32; L 1.67; D 1.73; H 2.71; S 2; A 2.01; M 1.64; R 1.07; C 1.75; I 1.9; W 2.55; G 2.83; T 1.7; K 3.15; Q 1.72; V 1.98; P 1.83; F 2.7; E 1.68
K1: Q 2.02; L 1.15; S 2.19; M 1.59; N 1.41; T 2.13; W 3.31; P 1.95; R 1.59
A3: S 1.66; G 2.48; Q 1.98; M 2.69; P 1.23; R 1.33; I 1.74; V 2.78; N 1.54; W 2.28; D 1.97; E 1.95; T 1.65; Y 1.79; C 1.62; L 1.09; F 3.12; K 1.53; H 2.38
